Data reported in patent US20250034594A1, “RNA-GUIDED GENOME RECOMBINEERING AT KILOBASE SCALE” (THE BOARD OF TRUSTEES OF THE LELAND STANFORD JUNIOR …, priority 2021, published 2025).

B1: SSAP_166: SEQ ID NO: 335; Blautia sp. OF03-15BH (protein, listed as Blautia sp.)
chain: NVKEELAQKAEITQKEVKLKKSMSISDMIRALQPEIKKALPSVVTPERFIRMALSALNTTPKLAECSQISVLAALMNAAQLGLEPNTPMGQAYLIPFNNKGKMECQFQIGYKGLLELVYRNPAIQIIQAQTVYENDYFEYELGLNSRLIHRPELEDRGEIRLFYGLFKMVNGGYGFEVMSRQEMDQYAARYSKSFASGFSPWENNYEDMAKKTMIKRVLKYAPVKIETARALINDESIKLHLSEDMSEVENETVVDGQAEEKAA
B2: SSAP_306: SEQ ID NO: 475; Paenibacillus gorillae (protein, listed as Paenibacillus gorillae)
chain: LEAKHDALPSGFNAVRFVQNCKAYLPEVRNFERFNPDEIALQFLKGAILGLDFLAKECHVITEGSAARFQTDYKGEMKLAMKHSVRPLLNIYAKNVREGDVFRESVVEGRPVVSFDPLPFNNSKIIGSFAVAQFNDGGMDYESMSSTEIESIRTHYGKNPGSDTWEKSQGEMYKRTALRRLCKTIEIDFDAEQRLAFDAGSSFEFNREPRPQQQSPLNLESEVLTDEVEQG
B3: SSAP_9: SEQ ID NO: 178; Bet Gammaproteobacteria (protein)
chain: EKPKLIQRFAERFSVDPNKLFDTLKATAFKQRDGSAPTNEQMMALLVVADQYGLNPFTKEIFAFPDKQAGIIPVVGVDGWSRIINQHDQFDGMEFKTSENKVSLDGAKECPEWMECIIYRRDRSHPVKITEYLDEVYRPPFEGNGKNGPYRVDGPWQTHTKRMLRHKSMIQCSRIAFGFVGIFDQDEAERIIEGQATHVVEPSVIPPEQVDDRTRGLVYKLIERAEASNAWNSALEYANEHFQGVELTFAKQEIFNAQQQAAKALTQPLAS
modifications: Gammaproteobacteria
notes: Bet Gammaproteobacteria
B4: SSAP_264: SEQ ID NO: 433; Cereibacter johrii (protein, listed as Cereibacter johrii)
chain: TENTAQAPAAARQLTPIQAISQTLESDAFAPKISASLDGTGISPARFKRAALACLSRPEASYLVEKCDRGSIFTAVMNAAAAELELHPALGQAYIVPRGGQAVLQVGYKGFIALASRAGLAVEADVIYAGDRFSIRKGTNPDVSVEPELDPAKRGEWVAVYVITHYASGAKTLTFMTRAEVEAIRNRYSDAYKRGGAGAKTWNESPEEMAKKTCIRRASKLWPISVPGGGDDDGGEVIEADPAPVPAPRMRDVTPGGGLDRLAASL
B5: SSAP_304: SEQ ID NO: 473; Desulfobacteraceae bacterium (protein, listed as Desulfobacteraceae bacterium)
chain: ATPNTPTTTDAGDFLKKSEKSLKNYAVRKYDFTSFLKSAMIAINDNTTLSECLRTEAGKKSLFNAMRYAATTGLSLNPQEGKAALIGYKNKAGEMVLNYQIMKNGLIDLALSSGKVEFVTADLVRANDEFSIKKSASGDDYSFSPAIRDRGEVIGFVAALKLKGSATYVKWMSTEEVAEFRDKYSSMYKNRPDASPWTHSFNGMGIKTVMKALLRSVSISPDVDAAVKSDDYIEAEFTVHGTTADDAVTQLQTPSKPVKAEEGQGELL

Test system: gene editing with Cas9
Assay: Screen of 322 new SSAP proteins, gene editing activity with Cas9 (Table 5)
Format: cell-based
Set-up: Cas9 with SSAP activity: scale not given here
Details: not given
How it was run: (§1)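 Read-out is gene editing activity. Candidates come from sequence data mining, are made synthetically, and are tested alongside either nuclease-active Cas9 or catalytically dead dCas9.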

Compared with B1, B2 is lower in “Cas9 with SSAP activity” value: −1.338 for the first, −2.932 for the second.

Compared with B3, B4 is higher in “Cas9 with SSAP activity” value: −0.503 for the first, 0.565 for the second.

In the case of B5, the “Cas9 with SSAP activity” value is reported as −2.690.

Same assay, conditions: normalized

First: B1
Second: B2
The “Cas9 with SSAP activity (normalized)” value of the first is higher: −0.432 for the first, −2.350 for the second.

Going from B3 to B4, the “Cas9 with SSAP activity (normalized)” value rises from −1.380 to 0.375.

With B5 the “Cas9 with SSAP activity (normalized)” value was −0.447.

Test system: gene editing with dCas9
Assay: Screen of 322 new SSAP proteins, gene editing activity with dCas9 (Table 5)
Format: cell-based
Set-up: dCas9 with SSAP activity: scale not given here
Details: not given
How it was run: as §1

First: B1
Second: B2
The “dCas9 with SSAP activity” value of the first is higher: −5.849 for the first, −5.884 for the second.

Going from B3 to B4, the “dCas9 with SSAP activity” value falls from −5.773 to −5.815.

For B5, the “dCas9 with SSAP activity” value was −5.835.

Same assay, conditions: normalized

Going from B1 to B2, the “dCas9 with SSAP activity (normalized)” value rises from −0.934 to −0.905.

Compared with B3, B4 is higher in “dCas9 with SSAP activity (normalized)” value: −1.126 for the first, −0.919 for the second.

B5 was tested, and the “dCas9 with SSAP activity (normalized)” value was −0.886.

Test system: gene editing with Cas9 and dCas9
Assay: Screen of 322 new SSAP proteins, activity across all experiments (Cas9 and dCas9, Table 5)
Format: cell-based
Set-up: scale not given here
Details: not given
How it was run: as §1

Going from B1 to B2, the “Activity across all experiments” value falls from −3.593 to −4.408.

First: B3
Second: B4
The “Activity across all experiments” value of the first is lower: −3.138 for the first, −2.625 for the second.

In the case of B5, the “Activity across all experiments” value is reported as −4.262.
